Measurements published in patent publication EP4755920A1.

Target: Full-length cynoIL4Rα on monkey IL4Rα-FlpinCHO cells (cynomolgus monkey)
Test: flow cytometry on monkey IL4Rα-FlpinCHO cells

Full-length cynoIL4Rα on monkey IL4Rα-FlpinCHO cells (cynomolgus monkey), sequence (A0A2K5 entry or part of it limits assumed): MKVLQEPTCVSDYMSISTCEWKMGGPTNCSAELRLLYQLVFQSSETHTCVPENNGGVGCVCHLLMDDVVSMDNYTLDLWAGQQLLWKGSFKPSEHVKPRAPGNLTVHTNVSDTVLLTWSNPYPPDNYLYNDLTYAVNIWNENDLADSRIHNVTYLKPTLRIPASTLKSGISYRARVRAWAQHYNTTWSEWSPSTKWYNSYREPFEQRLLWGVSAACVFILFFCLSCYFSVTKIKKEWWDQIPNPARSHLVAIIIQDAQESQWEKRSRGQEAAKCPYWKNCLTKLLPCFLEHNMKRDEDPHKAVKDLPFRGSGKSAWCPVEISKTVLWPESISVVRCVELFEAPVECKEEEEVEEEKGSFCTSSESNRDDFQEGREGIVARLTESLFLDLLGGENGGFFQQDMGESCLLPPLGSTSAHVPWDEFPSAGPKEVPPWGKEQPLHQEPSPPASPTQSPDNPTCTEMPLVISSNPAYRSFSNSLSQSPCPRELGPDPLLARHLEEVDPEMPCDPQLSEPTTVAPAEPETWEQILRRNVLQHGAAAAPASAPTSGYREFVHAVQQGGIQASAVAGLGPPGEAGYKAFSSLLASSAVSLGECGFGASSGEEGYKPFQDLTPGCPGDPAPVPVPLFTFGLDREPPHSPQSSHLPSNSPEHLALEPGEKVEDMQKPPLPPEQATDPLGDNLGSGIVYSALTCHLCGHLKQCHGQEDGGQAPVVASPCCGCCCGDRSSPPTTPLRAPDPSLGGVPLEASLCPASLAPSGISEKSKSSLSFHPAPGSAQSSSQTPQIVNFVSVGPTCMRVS

Binder	Emax
IL4R-CHI-04 (antibody, V domains shown) VH: DVQLQESGPGLVKPSQSLSLTCTVTGYSITSDYAWNWIRQFPGNKLEWMGYISYSGSSSYNPSLKSRISITRDTSKNQFFLQLNSVTTDDTATYYCAGGGLRRRGLFDYWGQGTTLTVSS VL: QIVLSQSPAILSASPGEKVTMTCRATSSVTYMHWYQQKPGSSPKPWIYATSNLASGVPARFSGSGSGTSYSLTISRVEAEDTATYYCQQWSSIPLTFGAGTKLELK	82
IL4R-CHI-07 (antibody, V domains shown) VH: QVQLQQSGAELVKPGASVKLSCKASGYTFTEYTIHWVKQRSGQGLEWIGWFYPGRGSIKYNEKFKDKATLTADKSSSTVYMELSRLTSEDSAVYFCTRHEYRGSNYAMDYWGQGTSVTVSS VL: DVLMTQTPLSLPVSLGDQASISCRSSQSIVHSSGNTYLQWYLQKPGQSPKLLIYKVSNRFSGVPDRFSGSGSGTDFTLKISRVEAEDLGVYYCFQGSHVPPTFGGGTKLEIK	58
IL4R-CHI-13 (antibody, V domains shown) VH: EVQLQQSGPVLVKPGASVKMSCKASGYTFTDYYMNWVKQRHGKSLDWIGTINPYNGGTGYNQKFKGKATLTVDKSSSTAYMELNSLTSEDSAVYFCARSLLRRRGAMDYWGQGTSVTVSS VL: DIVLTQSPASLVVSLGQRATISCRASKSVSTSGYGYIHWYRQKPGQPPKLLIYLVSNLESGVPARFSGSGSGTDFTLNIHPVEEEDAATYYCQHIRELYTFGGGTKLEIK	74

More lines, now with the values ahead:

Emax	Binder
97	IL4R-CHI-14 (antibody, V domains shown) VH: EVMLVESGGGLVKPGGSLKLSCAASGFTFSSYAMSWVRQTPEKRLEWVAIISGGGDSTYYPDSVKGRFTISRDNAKNTLYLQMSSLRSEDTALYFCARLHYWYFDFWGTGTTVTVSS VL: DIQMTQSSSSFSVSLGDRVTITCKASEDLYNRLAWYQQKPGNAPRLLISGATSLETGVPSRFSGSGSGRDYTLIITSLQTEDVATYYCQQYWRNPYTFGGGTKLEIK
68	IL4R-CHI-17 (antibody, V domains shown) VH: QAYLQQSGAELVRPGASVKMSCKASGYTFTSYNMHWAKQTPRQGLEWIGSIYPGNGDTSYNQKFKGKATLTVDKSSSTAYMQLSSLTSEDSAVYFCARGGRLRRGDWFAYWGQGTLVTVSA VL: DIQMTQSPASLSASVGETVTITCRASENIYSYLIWYQQKQGKSPQLLVYDAKTLAEGVPSRFSGSGSGSQFSLKINSLQPEDFGTYYCQHHYGTPLTFGGGTKLELK
